Source: patent US20180305423A1 (OKLAHOMA MEDICAL RESEARCH FOUNDATION, published 2018)
One block for each binder: values may come before it.

What was measured:
[1] = target: T1, VEGFR2 (endogenous, HUVEC^αvβ3 cells) (human, UniProt P35968 20-1356); assay: co-IP with anti-VEGFR2 from HUVECαvβ3 cells, blot for Epn1, with quantification [panel B]
T1 construct: whole, on cells

[2] = target: T2, IP3R1 (IP3 receptor 1, ITPR1) (mouse, UniProt P11881 1-2749, limits assumed); assay: IP with epsin 1 antibody from oxLDL-treated MAEC, gel for mass spectrometry [panel A]
T2 construct: also called IP3 Receptors

[3] = target: T3, IRS1 (insulin receptor substrate) (UniProt P35569 1-1233); assay: co-IP with anti-epsin 1 from 3T3-L1 pre-adipocytes with or without insulin, blot for IRS1
T3 sequence (looked up): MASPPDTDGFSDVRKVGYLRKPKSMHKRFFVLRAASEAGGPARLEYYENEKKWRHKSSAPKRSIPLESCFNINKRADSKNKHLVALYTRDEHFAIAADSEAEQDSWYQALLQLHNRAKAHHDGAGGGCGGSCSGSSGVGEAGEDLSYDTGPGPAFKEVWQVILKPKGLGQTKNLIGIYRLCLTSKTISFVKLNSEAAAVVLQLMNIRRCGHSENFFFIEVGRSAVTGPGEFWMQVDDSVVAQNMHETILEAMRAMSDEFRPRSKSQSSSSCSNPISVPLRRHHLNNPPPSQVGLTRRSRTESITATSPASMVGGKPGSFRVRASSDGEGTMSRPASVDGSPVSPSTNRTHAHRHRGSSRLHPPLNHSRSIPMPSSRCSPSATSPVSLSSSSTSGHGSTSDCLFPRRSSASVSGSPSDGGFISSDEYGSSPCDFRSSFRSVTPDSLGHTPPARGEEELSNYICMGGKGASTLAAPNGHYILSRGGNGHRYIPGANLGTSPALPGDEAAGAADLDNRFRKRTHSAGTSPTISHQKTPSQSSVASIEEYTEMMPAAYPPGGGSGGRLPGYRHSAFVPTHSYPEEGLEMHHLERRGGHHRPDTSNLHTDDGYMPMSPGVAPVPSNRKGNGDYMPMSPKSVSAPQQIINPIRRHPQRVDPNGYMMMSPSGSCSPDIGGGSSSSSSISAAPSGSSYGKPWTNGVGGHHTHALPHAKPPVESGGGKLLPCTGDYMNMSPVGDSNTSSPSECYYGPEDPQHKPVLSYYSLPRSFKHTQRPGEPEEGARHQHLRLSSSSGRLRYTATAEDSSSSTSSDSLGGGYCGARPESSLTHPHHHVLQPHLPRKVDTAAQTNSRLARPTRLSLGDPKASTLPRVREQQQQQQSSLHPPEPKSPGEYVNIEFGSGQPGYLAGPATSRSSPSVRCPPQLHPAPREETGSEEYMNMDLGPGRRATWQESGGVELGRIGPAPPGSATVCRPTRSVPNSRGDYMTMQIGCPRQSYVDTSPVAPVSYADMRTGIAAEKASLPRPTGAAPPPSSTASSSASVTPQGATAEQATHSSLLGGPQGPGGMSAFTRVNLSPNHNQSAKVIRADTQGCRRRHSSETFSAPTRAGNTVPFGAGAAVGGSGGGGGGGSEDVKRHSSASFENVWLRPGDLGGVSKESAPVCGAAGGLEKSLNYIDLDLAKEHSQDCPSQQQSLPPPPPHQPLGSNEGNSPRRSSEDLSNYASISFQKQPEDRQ

T1 sequence (P35968 20-1356): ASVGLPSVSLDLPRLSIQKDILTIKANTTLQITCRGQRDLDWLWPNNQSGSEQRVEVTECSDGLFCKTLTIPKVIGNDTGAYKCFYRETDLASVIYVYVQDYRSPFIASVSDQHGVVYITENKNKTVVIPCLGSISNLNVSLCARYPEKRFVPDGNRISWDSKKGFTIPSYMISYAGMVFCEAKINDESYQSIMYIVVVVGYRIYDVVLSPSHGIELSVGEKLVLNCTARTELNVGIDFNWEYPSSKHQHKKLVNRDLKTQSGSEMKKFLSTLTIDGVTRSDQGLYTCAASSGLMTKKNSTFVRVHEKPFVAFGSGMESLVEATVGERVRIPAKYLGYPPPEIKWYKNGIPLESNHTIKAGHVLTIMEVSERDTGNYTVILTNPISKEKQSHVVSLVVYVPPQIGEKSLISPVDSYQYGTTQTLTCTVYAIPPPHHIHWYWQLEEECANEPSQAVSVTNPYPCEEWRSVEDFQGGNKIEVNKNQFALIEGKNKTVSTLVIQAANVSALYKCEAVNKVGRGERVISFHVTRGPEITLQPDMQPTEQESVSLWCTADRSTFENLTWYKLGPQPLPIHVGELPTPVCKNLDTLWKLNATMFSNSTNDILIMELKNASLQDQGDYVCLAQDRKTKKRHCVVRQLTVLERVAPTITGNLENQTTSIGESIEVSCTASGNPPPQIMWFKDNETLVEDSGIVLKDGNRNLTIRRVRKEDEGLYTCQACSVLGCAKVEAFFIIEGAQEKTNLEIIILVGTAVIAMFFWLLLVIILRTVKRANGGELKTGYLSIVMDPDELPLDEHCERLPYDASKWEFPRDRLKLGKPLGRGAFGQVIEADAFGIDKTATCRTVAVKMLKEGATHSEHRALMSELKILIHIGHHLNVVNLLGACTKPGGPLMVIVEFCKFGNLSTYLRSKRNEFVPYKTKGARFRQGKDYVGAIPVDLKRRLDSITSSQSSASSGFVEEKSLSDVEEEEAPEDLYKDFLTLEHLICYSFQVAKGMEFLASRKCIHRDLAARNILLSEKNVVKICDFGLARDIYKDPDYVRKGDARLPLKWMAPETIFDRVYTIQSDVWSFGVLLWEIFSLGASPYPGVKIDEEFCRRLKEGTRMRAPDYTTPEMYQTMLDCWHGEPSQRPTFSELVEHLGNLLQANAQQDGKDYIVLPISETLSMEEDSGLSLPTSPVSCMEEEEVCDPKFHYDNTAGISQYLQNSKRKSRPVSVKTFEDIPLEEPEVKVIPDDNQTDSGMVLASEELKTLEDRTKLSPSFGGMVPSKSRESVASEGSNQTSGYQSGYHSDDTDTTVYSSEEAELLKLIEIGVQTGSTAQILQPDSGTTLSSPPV
T2 sequence (P11881 whole entry): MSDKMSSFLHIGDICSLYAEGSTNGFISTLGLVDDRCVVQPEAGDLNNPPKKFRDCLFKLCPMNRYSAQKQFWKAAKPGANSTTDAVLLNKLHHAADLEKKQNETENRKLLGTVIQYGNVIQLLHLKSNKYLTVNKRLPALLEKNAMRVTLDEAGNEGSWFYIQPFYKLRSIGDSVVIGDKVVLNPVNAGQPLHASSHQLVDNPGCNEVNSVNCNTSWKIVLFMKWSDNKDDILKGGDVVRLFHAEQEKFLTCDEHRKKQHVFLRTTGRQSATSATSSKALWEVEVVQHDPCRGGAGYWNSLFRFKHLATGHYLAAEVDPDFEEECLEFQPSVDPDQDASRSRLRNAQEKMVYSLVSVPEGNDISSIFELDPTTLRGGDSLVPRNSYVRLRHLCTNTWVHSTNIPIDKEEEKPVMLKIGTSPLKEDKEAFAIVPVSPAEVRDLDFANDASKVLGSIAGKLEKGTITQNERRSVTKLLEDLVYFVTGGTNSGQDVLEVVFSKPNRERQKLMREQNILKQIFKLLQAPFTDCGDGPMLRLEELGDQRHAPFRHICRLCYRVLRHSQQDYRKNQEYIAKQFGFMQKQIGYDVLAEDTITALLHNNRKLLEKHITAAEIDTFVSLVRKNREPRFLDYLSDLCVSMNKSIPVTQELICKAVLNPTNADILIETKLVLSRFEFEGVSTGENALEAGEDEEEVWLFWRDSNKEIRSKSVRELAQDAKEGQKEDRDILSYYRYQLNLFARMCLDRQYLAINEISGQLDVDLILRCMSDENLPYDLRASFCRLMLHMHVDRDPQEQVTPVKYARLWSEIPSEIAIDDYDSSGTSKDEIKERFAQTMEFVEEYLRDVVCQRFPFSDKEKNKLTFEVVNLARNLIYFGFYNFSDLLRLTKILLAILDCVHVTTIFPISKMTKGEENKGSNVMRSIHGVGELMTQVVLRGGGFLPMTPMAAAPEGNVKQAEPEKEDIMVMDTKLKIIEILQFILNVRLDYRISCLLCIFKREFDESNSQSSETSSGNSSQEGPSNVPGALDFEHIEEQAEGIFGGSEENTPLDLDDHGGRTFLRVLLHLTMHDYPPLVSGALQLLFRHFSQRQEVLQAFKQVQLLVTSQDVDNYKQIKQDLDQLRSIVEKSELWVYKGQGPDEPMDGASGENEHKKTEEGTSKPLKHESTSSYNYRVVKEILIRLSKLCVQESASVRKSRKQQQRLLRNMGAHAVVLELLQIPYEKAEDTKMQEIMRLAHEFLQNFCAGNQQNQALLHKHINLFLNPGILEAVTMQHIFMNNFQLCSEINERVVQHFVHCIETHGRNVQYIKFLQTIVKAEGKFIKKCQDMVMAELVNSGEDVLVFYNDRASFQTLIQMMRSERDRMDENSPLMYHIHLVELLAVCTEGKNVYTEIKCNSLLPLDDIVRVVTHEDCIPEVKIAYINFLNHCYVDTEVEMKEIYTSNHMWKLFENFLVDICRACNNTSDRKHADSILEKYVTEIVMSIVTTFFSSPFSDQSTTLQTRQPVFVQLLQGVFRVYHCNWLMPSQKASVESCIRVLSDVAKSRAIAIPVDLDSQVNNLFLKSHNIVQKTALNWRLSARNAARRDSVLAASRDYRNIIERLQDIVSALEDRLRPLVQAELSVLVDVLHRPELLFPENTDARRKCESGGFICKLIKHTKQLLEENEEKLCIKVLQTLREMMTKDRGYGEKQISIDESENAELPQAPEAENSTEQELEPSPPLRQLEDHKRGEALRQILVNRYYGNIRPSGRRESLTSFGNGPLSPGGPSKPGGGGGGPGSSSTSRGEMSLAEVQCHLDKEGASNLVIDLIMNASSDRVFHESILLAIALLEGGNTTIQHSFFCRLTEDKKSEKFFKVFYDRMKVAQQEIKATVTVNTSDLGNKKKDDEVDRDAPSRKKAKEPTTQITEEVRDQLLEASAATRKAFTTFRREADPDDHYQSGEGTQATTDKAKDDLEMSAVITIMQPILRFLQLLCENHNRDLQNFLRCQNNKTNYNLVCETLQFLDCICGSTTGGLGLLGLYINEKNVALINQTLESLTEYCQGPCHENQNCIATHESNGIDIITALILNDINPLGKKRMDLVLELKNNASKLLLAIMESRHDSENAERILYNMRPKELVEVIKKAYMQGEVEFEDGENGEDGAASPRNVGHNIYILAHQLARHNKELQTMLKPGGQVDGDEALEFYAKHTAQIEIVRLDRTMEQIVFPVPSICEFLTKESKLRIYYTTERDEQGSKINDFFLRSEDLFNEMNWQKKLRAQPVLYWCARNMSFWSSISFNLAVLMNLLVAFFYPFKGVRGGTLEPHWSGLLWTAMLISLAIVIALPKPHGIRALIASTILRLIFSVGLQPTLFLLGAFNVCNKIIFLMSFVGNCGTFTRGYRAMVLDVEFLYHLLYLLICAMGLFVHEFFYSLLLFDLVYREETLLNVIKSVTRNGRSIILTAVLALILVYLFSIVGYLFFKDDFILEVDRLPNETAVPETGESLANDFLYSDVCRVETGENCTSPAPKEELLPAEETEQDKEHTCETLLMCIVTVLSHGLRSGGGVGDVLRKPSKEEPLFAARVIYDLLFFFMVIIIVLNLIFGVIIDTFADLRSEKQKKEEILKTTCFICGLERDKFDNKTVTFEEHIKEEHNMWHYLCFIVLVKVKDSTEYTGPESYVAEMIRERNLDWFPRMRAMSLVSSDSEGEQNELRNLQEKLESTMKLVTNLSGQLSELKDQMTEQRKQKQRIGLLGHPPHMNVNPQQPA

binding result [1]: binds
B1: Epsin 1 (endogenous, HUVEC^αvβ3 cells) (other, human, UniProt Q9Y6I3 1-576, looked up)
chain: MSTSSLRRQMKNIVHNYSEAEIKVREATSNDPWGPSSSLMSEIADLTYNVVAFSEIMSMIWKRLNDHGKNWRHVYKAMTLMEYLIKTGSERVSQQCKENMYAVQTLKDFQYVDRDGKDQGVNVREKAKQLVALLRDEDRLREERAHALKTKEKLAQTATASSAAVGSGPPPEAEQAWPQSSGEEELQLQLALAMSKEEADQPPSCGPEDDAQLQLALSLSREEHDKEERIRRGDDLRLQMAIEESKRETGGKEESSLMDLADVFTAPAPAPTTDPWGGPAPMAAAVPTAAPTSDPWGGPPVPPAADPWGGPAPTPASGDPWRPAAPAGPSVDPWGGTPAPAAGEGPTPDPWGSSDGGVPVSGPSASDPWTPAPAFSDPWGGSPAKPSTNGTTAAGGFDTEPDEFSDFDRLRTALPTSGSSAGELELLAGEVPARSPGAFDMSGVRGSLAEAVGSPPPAATPTPTPPTRKTPESFLGPNAALVDLDSLVSRPGPTPPGAKASNPFLPGGGPATGPSVTNPFQPAPPATLTLNQLRLSPVPPVPGAPPTYISPLGGGPGLPPMMPPGPPAPNTNPFLL
notes: also called endogenous epsin 1

binding result [2]: binds | binding result [3]: binds
B2: Epsin 1 (endogenous, MAEC and 3T3-L1 cells) (other, mouse, UniProt Q80VP1 1-575, looked up)
chain: MSTSSLRRQMKNIVHNYSEAEIKVREATSNDPWGPSSSLMSEIADLTYNVVAFSEIMSMIWKRLNDHGKNWRHVYKAMTLMEYLIKTGSERVSQQCKENMYAVQTLKDFQYVDRDGKDQGVNVREKAKQLVALLRDEDRLREERAHALKTKEKLAQTATASSAAVGSGPPPEAEQAWPQSSGEEELQLQLALAMSKEEADQPPSCGPEDDVQLQLALSLSREEHDKEERIRRGDDLRLQMAIEESKRETGGKEESSLMDLADVFTTPAPPQASDPWGGPASVPTAVPVAAAASDPWGGPAVPPAADPWGGAAPTPASGDPWRPAAPTGPSVDPWGGTPAPAAGEGPTPDPWGSSDGGAPVSGPPSSDPWAPAPAFSDPWGGSPAKPSSNGTAVGGFDTEPDEFSDFDRLRTALPTSGSSTGELELLAGEVPARSPGAFDMSGVGGSLAESVGSPPPAATPTPTPPTRKTPESFLGPNAALVDLDSLVSRPGPTPPGSKASNPFLPSGAPPTGPSVTNPFQPAPPATLTLNQLRLSPVPPVPGAPPTYISPLGGGPGLPPMMPPGPPAPNTNPFLL
notes: also called epsins
